± gives the standard deviation.
Experiment: protein stability index of a GFP-peptide fusion (GPS, HEK-293T) (PSI 1-6); higher = more stable
Settings: c terminus: a fixed tail appended
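Also: 24-mer peptide tiles fused after GFP, lentivirally expressed, FACS-sorted into six equal bins by GFP/DsRed ratio, decoded by Illumina sequencing, PSI is the read-weighted mean bin number.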

Row | Sequence | protein stability index (treatment: DMSO) | protein stability index (treatment: MLN4924 1 uM, 8 h)
1 | DQLTQIMRTGQNTWESKNILAVSF [PCMTD1] | 2.21 ± 0.22 | 1.92 ± 0.36
2 | ASASKFPSSGPVTPQPTALTFAKS [AUP1] | 4.33 ± 0.17 | 4.36 ± 0.38
3 | KRMSELCIDFNKNLNEDDTFLVFS | 2.08 ± 0.25 | 2.58 ± 0.11
4 | KKIRQVIRKYNYVAMDTEFPGVVA [CNOT7] | 2.79 ± 0.35 | 2.24 ± 0.28
5 | IKAWMDRYEEANNNQYSEGVQREA [KMT2E] | 3.77 ± 0.14 | 4.05 ± 0.28
6 | AGVSLSTLEELLPPNTRVLRVLPN [PYCR3] | 2.79 ± 0.26 | 2.63 ± 0.23
7 | GKGFRHSSSLAQHQRKHAGEKPFE [ZNF8] | 4.82 ± 0.21 | 4.69 ± 0.28
8 | EFPDFYDSEEPVSTHQEAENEKDR [CHGB] | 5.68 ± 0.25 | 5.54 ± 0.24
9 | MMNQSMMGMNMNIGMSAAGMGLTG [CLINT1] | 2.46 ± 0.39 | 2.53 ± 0.3
10 | GRARATGGDLEEQQHAEGSPEPGT [DNAAF3] | 5.59 ± 0.3 | 5.54 ± 0.23
11 | GVQREAQRIALRLGNGNDKKEMNK [KMT2E] | 4.8 ± 0.26 | 4.78 ± 0.28
12 | VKFCLLGALLAPIRVLLAFIVLFL [LPCAT4] | 2.15 ± 0.29 | 1.86 ± 0.2
13 | AMEKFREDEGFLREEERPLPRRDF [KCNA3] | 4.74 ± 0.23 | 4.74 ± 0.17
14 | IELQAQHSMRNSLESTLAETEARY [KRT36] | 4.38 ± 0.15 | 4.23 ± 0.23
15 | MDGQTDFWRDWEDYAHGFGNISGE [TNXB] | 3.94 ± 0.34 | 4.34 ± 0.58
16 | YAADRNCMWSKKCSGVACLVKDNP [WASL] | 3.08 ± 0.95 | 2.49 ± 0.3
17 | AIQQMGGQWLGGRQIRTNWATRKP [TIA1] | 2.8 ± 0.29 | 3.21 ± 0.44

Row | Sequence | protein stability index (treatment: DMSO) | protein stability index (treatment: MLN4924 1 uM, 8 h)
18 | SEEYRAPRPQSEESWDEEDKRNYP [CHGB] | 5.47 ± 0.19 | 5.42 ± 0.3
19 | MTTSHQPQDRYKAVWLIFFMLGLG [SLC29A1] | 2.52 ± 0.61 | 2.41 ± 0.43
20 | VFAHCKEAPSTASSTPDSTEGGND [RTN2] | 5.42 ± 0.33 | 5.37 ± 0.37
21 | LEQPFLSVFKKGRRRVPVRNLGKV [PLEKHN1] | 3.19 ± 0.31 | 3.56 ± 0.58
22 | AVDAGDPAVEACENRRKVLYQRAP [TCF25] | 4.62 ± 0.21 | 5.02 ± 0.22
23 | PALDIFGDLFESTPEVAAAPKPDA [SNAP91] | 4.57 ± 0.21 | 4.67 ± 0.27
24 | GAYQPTVVSSEGRQSRRQSVSRFF [FBF1] | 4.01 ± 0.37 | 4.1 ± 0.32
25 | RIPTCHDKPGTTQIVQLTQQVDTN [DENND6A] | 4.6 ± 0.14 | 4.59 ± 0.14
26 | SINAGSWMWLSCSSFFQQFFHCYC [CRY1] | – | 3.4 ± 0.11
27 | ELDEEEVKAATTEPTEVEEVVPAL [BCL2L13] | 5.44 ± 0.28 | 5.54 ± 0.13
28 | TELSFLVTTHQPTNLVLPSNGSMH [EDNRA] | 2.67 ± 0.33 | 2.44 ± 0.42
29 | RWASAPPLYTLIDVLKYSYVRLVC [ZSWIM9] | 2.6 ± 0.45 | 3.01 ± 0.74
30 | ILTSQPGKEVVKQLEEGLKDTDLA [M1AP] | 5.05 ± 0.28 | 5.17 ± 0.17
31 | KRLCGLKVEVDMEKIAAEIAQAEE [SMARCE1] | 2.25 ± 0.12 | 3.63 ± 0.37
32 | NIGKSHQGLKLYAVEISDHPGEHE [CPXM2] | 4.24 ± 0.13 | 4.07 ± 0.41
33 | TKMWHPNIYENGDVCISILHPPVD [UBE2R2] | 2.11 ± 0.34 | 2.23 ± 0.055
